# In patent US20140242073A1, “CARTILAGE/BONE DESTRUCTION SUPPRESSOR” (priority 2011, published 2014):
# B1: 4A67: IgM-type mouse anti-rat FR-β monoclonal antibody (antibody, V domains shown)
# VH: QIQLVQSGPELKKPGETVKISCKASGYTFTNYGMNWVKQAPGKGLKWMGWINTYTGEPTYTDDFKGRFAFSLETSASTAYLQINNLKNEDMATYFCARKGAMDYWGQGTSVTVSS
# VL: QIVLTQSPAIMSASPGEKVTMTCSASSSVSYMHWYQQKSGTSPKRWIYDTSKLASGVPARFSGSGSGTSYSLTISSMEAEDAATYYCQQWSSNPPTFGSGTKLEIK
# Experiments:
# [1] = tested on: cartilage cells; conditions: intra-articular administration, Nakazawa et al. 2002; cited from earlier work
# [2] = tested on: thioglycolate-induced peritoneal macrophages; experiment: Flow cytometry reactivity of antibody with peritoneal macrophages; type: binding, Lewis rats; conditions: Lewis rat peritoneal macrophages, co-stained anti-CD11b/c
# Experimental: (§1) After the end of reaction, stainability was measured using a flow cytometer. […], 3% thioglycolate was intraperitoneally administered to Lewis rats, and peritoneal macrophages were collected 4 days later. The negative control antibody or the 4A67 antibody was added to the macrophages adjusted to 1×10^5 for the same reaction as above, followed by further adding an anti-CD11b/c antibody labeled with phycoerythrin or the negative control antibody labeled with phycoerythrin for reaction. After the reaction, stainability was measured using a flow cytometer.
# [3] = tested on: rat FR-β-expressing B300-19; experiment: Flow cytometry reactivity of antibody with FR-β-expressing B300-19 cells; type: binding; conditions: 1×10^5 cells, APC-labeled anti-mouse IgM
# Experimental: The resultant hybridomas were cloned by limiting dilution culture adjusted to 1 cell per well of a 96-well plate. The cloned cells were sorted by reactivity with FR-β-expressing cells. The isotype of the mouse monoclonal antibodies was determined using a mouse immunoglobulin isotyping ELISA kit (Pharmingen). As a result, the mouse anti-rat FR-β monoclonal antibodies obtained were IgM-type clone 4A67. The reactivity of these antibodies to the antigen was analyzed by flow cytometry.
# as §1
molecule,measurement,setting,value
"C[C@H]1C[C@@H]2[C@H]([C@@H](O)C[C@@]3(C)[C@H]2CC[C@]3(O)C(=O)CO)[C@@]2(C)C=CC(=O)C=C12 [Steroid, methylprednisolone]",apoptotic death of cartilage cells,[1],causes the apoptotic death of cartilage cells
B1,reactivity with thioglycolate-induced peritoneal macrophages,[2],reacts
same,reactivity with rat FR-β-expressing B300-19,[3],reacts
